Test results as given in ChEMBL document CHEMBL4680222, “Sensitive fluorogenic substrates for sirtuin deacylase inhibitor discovery” (Eur J Med Chem, 2020).

Key:
[1] = compound: CC(=O)NCCCC[C@H](NC(=O)[C@H](CC(C)C)NC(=O)[C@H](CCCCN)NC(=O)[C@H](Cc1ccc(O)cc1)NC(C)=O)C(=O)Nc1ccc2c(C)cc(=O)oc2c1; assay: (§1) Substrate activity at human N-terminal His-tagged SIRT1 (183 to 664 residues) expressed in Escherichia coli assessed as ratio of Kcat to Km measured after 1 hr in presence of NAD+ and trypsin by Michaelis-Menten kinetic model based fluorescence assay
[2] = compound: CC[C@H](C)[C@H](NC(=O)[C@H](CC(C)C)NC(=O)[C@H](CCCNC(=N)N)NC(C)=O)C(=O)N[C@@H](CCCCNC(C)=O)C(=O)Nc1ccc2c(C)cc(=O)oc2c1; assay: as §1
[3] = compound: CC(=O)NCCCC[C@H](NC(=O)[C@H](CC(C)C)NC(=O)[C@H](CCCCN)NC(=O)[C@H](Cc1ccc(O)cc1)NC(C)=O)C(=O)Nc1ccc2c(C)cc(=O)oc2c1; assay: (§2) Substrate activity at human N-terminal His-tagged SIRT1 (183 to 664 residues) expressed in Escherichia coli assessed as Kcat measured after 1 hr in presence of NAD+ and trypsin by Michaelis-Menten kinetic model based fluorescence assay
[4] = compound: CC[C@H](C)[C@H](NC(=O)[C@H](CC(C)C)NC(=O)[C@H](CCCNC(=N)N)NC(C)=O)C(=O)N[C@@H](CCCCNC(C)=O)C(=O)Nc1ccc2c(C)cc(=O)oc2c1; assay: as §2
[5] = compound: CC(=O)NCCCC[C@H](NC(=O)[C@H](CC(C)C)NC(=O)[C@H](CCCCN)NC(=O)[C@H](Cc1ccc(O)cc1)NC(C)=O)C(=O)Nc1ccc2c(C)cc(=O)oc2c1; assay: (§3) Substrate activity at human N-terminal His-tagged SIRT1 (183 to 664 residues) expressed in Escherichia coli assessed as Km measured after 1 hr in presence of NAD+ and trypsin by Michaelis-Menten kinetic model based fluorescence assay
[6] = compound: CC[C@H](C)[C@H](NC(=O)[C@H](CC(C)C)NC(=O)[C@H](CCCNC(=N)N)NC(C)=O)C(=O)N[C@@H](CCCCNC(C)=O)C(=O)Nc1ccc2c(C)cc(=O)oc2c1; assay: as §3
[7] = compound: CC(=O)NCCCC[C@H](NC(=O)[C@H](CC(C)C)NC(=O)[C@H](CCCCN)NC(=O)[C@H](Cc1ccc(O)cc1)NC(C)=O)C(=O)Nc1ccc2c(C)cc(=O)oc2c1; assay: (§4) Substrate activity at human N-terminal His-tagged SIRT1 (183 to 664 residues) expressed in Escherichia coli assessed as Vmax measured after 1 hr in presence of NAD+ and trypsin by Michaelis-Menten kinetic model based fluorescence assay
[8] = compound: CC[C@H](C)[C@H](NC(=O)[C@H](CC(C)C)NC(=O)[C@H](CCCNC(=N)N)NC(C)=O)C(=O)N[C@@H](CCCCNC(C)=O)C(=O)Nc1ccc2c(C)cc(=O)oc2c1; assay: as §4
[9] = compound: CC(=O)NCCCC[C@H](NC(=O)[C@H](CC(C)C)NC(=O)[C@H](CCCCN)NC(=O)[C@H](Cc1ccc(O)cc1)NC(C)=O)C(=O)Nc1ccc2c(C)cc(=O)oc2c1; assay: (§5) Substrate activity at human N-terminal His-tagged SIRT2 (56 to 356 residues) expressed in Escherichia coli assessed as ratio of Kcat to Km measured after 1 hr in presence of NAD+ and trypsin by Michaelis-Menten kinetic model based fluorescence assay
[10] = compound: CCCCCCCCCC(=O)NCCCC[C@H](NC(=O)[C@@H](NC(=O)[C@H](CO)NC(=O)[C@H](CO)NC(C)=O)[C@@H](C)CC)C(=O)Nc1ccc2c(C)cc(=O)oc2c1; assay: as §5
[11] = compound: CC(=O)NCCCC[C@H](NC(=O)OCc1ccccc1)C(=O)Nc1ccc2c(C)cc(=O)oc2c1; assay: as §5
[12] = compound: CC[C@H](C)[C@H](NC(=O)[C@H](CC(C)C)NC(=O)[C@H](CCCNC(=N)N)NC(C)=O)C(=O)N[C@@H](CCCCNC(C)=O)C(=O)Nc1ccc2c(C)cc(=O)oc2c1; assay: as §5
[13] = compound: CCCCCCCCCC(=O)NCCCC[C@H](NC(=O)[C@H](CC(=O)O)NC(=O)[C@@H](NC(=O)[C@H](CCC(=O)O)NC(C)=O)[C@@H](C)O)C(=O)Nc1ccc2c(C)cc(=O)oc2c1; assay: as §5
[14] = compound: CCCCCCCCCCCCCC(=O)NCCCC[C@H](NC(=O)OCc1ccccc1)C(=O)Nc1ccc2c(C)cc(=O)oc2c1; assay: as §5
[15] = compound: CC(=O)NCCCC[C@H](NC(=O)[C@H](CC(C)C)NC(=O)[C@H](CCCCN)NC(=O)[C@H](Cc1ccc(O)cc1)NC(C)=O)C(=O)Nc1ccc2c(C)cc(=O)oc2c1; assay: (§6) Substrate activity at human N-terminal His-tagged SIRT2 (56 to 356 residues) expressed in Escherichia coli assessed as Kcat measured after 1 hr in presence of NAD+ and trypsin by Michaelis-Menten kinetic model based fluorescence assay
[16] = compound: CCCCCCCCCC(=O)NCCCC[C@H](NC(=O)[C@@H](NC(=O)[C@H](CO)NC(=O)[C@H](CO)NC(C)=O)[C@@H](C)CC)C(=O)Nc1ccc2c(C)cc(=O)oc2c1; assay: as §6
[17] = compound: CC(=O)NCCCC[C@H](NC(=O)OCc1ccccc1)C(=O)Nc1ccc2c(C)cc(=O)oc2c1; assay: as §6
[18] = compound: CC[C@H](C)[C@H](NC(=O)[C@H](CC(C)C)NC(=O)[C@H](CCCNC(=N)N)NC(C)=O)C(=O)N[C@@H](CCCCNC(C)=O)C(=O)Nc1ccc2c(C)cc(=O)oc2c1; assay: as §6
[19] = compound: CCCCCCCCCC(=O)NCCCC[C@H](NC(=O)[C@H](CC(=O)O)NC(=O)[C@@H](NC(=O)[C@H](CCC(=O)O)NC(C)=O)[C@@H](C)O)C(=O)Nc1ccc2c(C)cc(=O)oc2c1; assay: as §6
[20] = compound: CCCCCCCCCCCCCC(=O)NCCCC[C@H](NC(=O)OCc1ccccc1)C(=O)Nc1ccc2c(C)cc(=O)oc2c1; assay: as §6
[21] = compound: CC(=O)NCCCC[C@H](NC(=O)[C@H](CC(C)C)NC(=O)[C@H](CCCCN)NC(=O)[C@H](Cc1ccc(O)cc1)NC(C)=O)C(=O)Nc1ccc2c(C)cc(=O)oc2c1; assay: (§7) Substrate activity at human N-terminal His-tagged SIRT2 (56 to 356 residues) expressed in Escherichia coli assessed as Vmax measured after 1 hr in presence of NAD+ and trypsin by Michaelis-Menten kinetic model based fluorescence assay
[22] = compound: CCCCCCCCCC(=O)NCCCC[C@H](NC(=O)[C@@H](NC(=O)[C@H](CO)NC(=O)[C@H](CO)NC(C)=O)[C@@H](C)CC)C(=O)Nc1ccc2c(C)cc(=O)oc2c1; assay: as §7
[23] = compound: CC(=O)NCCCC[C@H](NC(=O)OCc1ccccc1)C(=O)Nc1ccc2c(C)cc(=O)oc2c1; assay: as §7
[24] = compound: CC[C@H](C)[C@H](NC(=O)[C@H](CC(C)C)NC(=O)[C@H](CCCNC(=N)N)NC(C)=O)C(=O)N[C@@H](CCCCNC(C)=O)C(=O)Nc1ccc2c(C)cc(=O)oc2c1; assay: as §7
[25] = compound: CCCCCCCCCC(=O)NCCCC[C@H](NC(=O)[C@H](CC(=O)O)NC(=O)[C@@H](NC(=O)[C@H](CCC(=O)O)NC(C)=O)[C@@H](C)O)C(=O)Nc1ccc2c(C)cc(=O)oc2c1; assay: as §7
[26] = compound: CCCCCCCCCCCCCC(=O)NCCCC[C@H](NC(=O)OCc1ccccc1)C(=O)Nc1ccc2c(C)cc(=O)oc2c1; assay: as §7
[27] = compound: CC(=O)NCCCC[C@H](NC(=O)[C@H](CC(C)C)NC(=O)[C@H](CCCCN)NC(=O)[C@H](Cc1ccc(O)cc1)NC(C)=O)C(=O)Nc1ccc2c(C)cc(=O)oc2c1; assay: (§8) Substrate activity at human N-terminal His-tagged SIRT2 (56 to 356 residues) expressed in Escherichia coli assessed as Km measured after 1 hr in presence of NAD+ and trypsin by Michaelis-Menten kinetic model based fluorescence assay
[28] = compound: CCCCCCCCCC(=O)NCCCC[C@H](NC(=O)[C@@H](NC(=O)[C@H](CO)NC(=O)[C@H](CO)NC(C)=O)[C@@H](C)CC)C(=O)Nc1ccc2c(C)cc(=O)oc2c1; assay: as §8
[29] = compound: CC(=O)NCCCC[C@H](NC(=O)OCc1ccccc1)C(=O)Nc1ccc2c(C)cc(=O)oc2c1; assay: as §8
[30] = compound: CC[C@H](C)[C@H](NC(=O)[C@H](CC(C)C)NC(=O)[C@H](CCCNC(=N)N)NC(C)=O)C(=O)N[C@@H](CCCCNC(C)=O)C(=O)Nc1ccc2c(C)cc(=O)oc2c1; assay: as §8
[31] = compound: CCCCCCCCCC(=O)NCCCC[C@H](NC(=O)[C@H](CC(=O)O)NC(=O)[C@@H](NC(=O)[C@H](CCC(=O)O)NC(C)=O)[C@@H](C)O)C(=O)Nc1ccc2c(C)cc(=O)oc2c1; assay: as §8
[32] = compound: CCCCCCCCCCCCCC(=O)NCCCC[C@H](NC(=O)OCc1ccccc1)C(=O)Nc1ccc2c(C)cc(=O)oc2c1; assay: as §8

B1: NAD-dependent protein deacetylase sirtuin-1 (Homo sapiens), Q96EB6 (protein)
chain: MADEAALALQPGGSPSAAGADREAASSPAGEPLRKRPRRDGPGLERSPGEPGGAAPEREVPAAARGCPGAAAAALWREAEAEAAAAGGEQEAQATAAAGEGDNGPGLQGPSREPPLADNLYDEDDDDEGEEEEEAAAAAIGYRDNLLFGDEIITNGFHSCESDEEDRASHASSSDWTPRPRIGPYTFVQQHLMIGTDPRTILKDLLPETIPPPELDDMTLWQIVINILSEPPKRKKRKDINTIEDAVKLLQECKKIIVLTGAGVSVSCGIPDFRSRDGIYARLAVDFPDLPDPQAMFDIEYFRKDPRPFFKFAKEIYPGQFQPSLCHKFIALSDKEGKLLRNYTQNIDTLEQVAGIQRIIQCHGSFATASCLICKYKVDCEAVRGDIFNQVVPRCPRCPADEPLAIMKPEIVFFGENLPEQFHRAMKYDKDEVDLLIVIGSSLKVRPVALIPSSIPHEVPQILINREPLPHLHFDVELLGDCDVIINELCHRLGGEYAKLCCNPVKLSEITEKPPRTQKELAYLSELPPTPLHVSEDSSSPERTSPPDSSVIVTLLDQAAKSNDDLDVSESKGCMEEKPQEVQTSRNVESIAEQMENPDLKNVGSSTGEKNERTSVAGTVRKCWPNRVAKEQISRRLDGNQYLFLPPNRYIFHGAEVYSDSEDDVLSSSSCGSNSDSGTCQSPSLEEPMEDESEIEEFYNGLEDEPDVPERAGGAGFGTDGDDQEAINEAISVKQEVTDMNYPSNKS
kcat/Km [1]: 226 M⁻¹ s⁻¹
kcat/Km [2]: 669 M⁻¹ s⁻¹
kcat [3]: 17.3 10^-3/s
kcat [4]: 37.9 10^-3/s
Km [5]: 76.5 µM
Km [6]: 56.6 µM
Vmax [7]: 208 nM/min
Vmax [8]: 454 nM/min

B2: NAD-dependent protein deacetylase sirtuin-2 (Homo sapiens), Q8IXJ6 (protein)
chain: MAEPDPSHPLETQAGKVQEAQDSDSDSEGGAAGGEADMDFLRNLFSQTLSLGSQKERLLDELTLEGVARYMQSERCRRVICLVGAGISTSAGIPDFRSPSTGLYDNLEKYHLPYPEAIFEISYFKKHPEPFFALAKELYPGQFKPTICHYFMRLLKDKGLLLRCYTQNIDTLERIAGLEQEDLVEAHGTFYTSHCVSASCRHEYPLSWMKEKIFSEVTPKCEDCQSLVKPDIVFFGESLPARFFSCMQSDFLKVDLLLVMGTSLQVQPFASLISKAPLSTPRLLINKEKAGQSDPFLGMIMGLGGGMDFDSKKAYRDVAWLGECDQGCLALAELLGWKKELEDLVRREHASIDAQSGAGVPNPSTSASPKKSPPPAKDEARTTEREKPQ
kcat/Km [9]: 129 M⁻¹ s⁻¹
kcat/Km [10]: 3530 M⁻¹ s⁻¹
kcat/Km [11]: 3.5 M⁻¹ s⁻¹
kcat/Km [12]: 289 M⁻¹ s⁻¹
kcat/Km [13]: 1250 M⁻¹ s⁻¹
kcat/Km [14]: 3.2 M⁻¹ s⁻¹
kcat [15]: 13.6 10^-3/s
kcat [16]: 4.25 10^-3/s
kcat [17]: 0.98 10^-3/s
kcat [18]: 12 10^-3/s
kcat [19]: 20.6 10^-3/s
kcat [20]: 0.054 10^-3/s
Vmax [21]: 81.9 nM/min
Vmax [22]: 25.5 nM/min
Vmax [23]: 26.3 nM/min
Vmax [24]: 36.1 nM/min
Vmax [25]: 61.9 nM/min
Vmax [26]: 1.63 nM/min
Km [27]: 106 µM
Km [28]: 1.2 µM
Km [29]: 274 µM
Km [30]: 41.6 µM
Km [31]: 16.5 µM
Km [32]: 1.7 µM
